Data taken from patent publication US20250129169A1 (Stanford University, published 2025).
Each block holds one binder with its values, some of them ahead of it.

Experiments:
human IFNAR2 ECD = biological target: T1, human IFNAR2 ECD (human, UniProt P48551 27-243); assay: SPR; human IFNAR2 ECD immobilized, VHH as analyte; binding constants from kinetic fits
T1 construct: extracellular domain; Immobilized for SPR under the same conditions as for the IL-2 specific VHHs
T1 sequence (looked up): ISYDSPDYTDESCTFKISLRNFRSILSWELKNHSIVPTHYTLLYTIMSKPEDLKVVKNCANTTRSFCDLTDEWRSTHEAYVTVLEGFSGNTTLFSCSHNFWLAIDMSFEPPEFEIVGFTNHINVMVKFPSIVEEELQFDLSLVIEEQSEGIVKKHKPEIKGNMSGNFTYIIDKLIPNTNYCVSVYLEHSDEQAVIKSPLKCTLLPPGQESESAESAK
Procedure: FIGS. 8A-8D depict signaling kinetics and gene expression driven by Type I Interferon surrogate ligands. (A) SPR sensorgrams displaying dose-dependent binding of IFNAR2 VHHs to immobilized human IFNAR2 ECD. SPR experiments were performed using the same conditions as for IL-2 specific VHHs. Binding constants were determined from kinetic fitting and summarized in (B). (C) qRT-PCR analysis of mRNA level of indicated genes in human primary bronchial/tracheal epithelial cells treated with 10 nM surrogate ligands or IFNω for 8 hr. (D) qRT-PCR analysis of mRNA level of indicated genes in PBMCs treated with 10 nM surrogate ligands or IFNω for 8 hr.

human IL-10Rβ ECD = biological target: T2, human IL-10Rβ ECD (human, UniProt Q08334 20-220); assay: SPR, kinetic fit, immobilized human IL-10Rβ ECD
T2 construct: extracellular domain; Immobilized for SPR under the same conditions as for the IL-2 specific VHHs
T2 sequence (looked up): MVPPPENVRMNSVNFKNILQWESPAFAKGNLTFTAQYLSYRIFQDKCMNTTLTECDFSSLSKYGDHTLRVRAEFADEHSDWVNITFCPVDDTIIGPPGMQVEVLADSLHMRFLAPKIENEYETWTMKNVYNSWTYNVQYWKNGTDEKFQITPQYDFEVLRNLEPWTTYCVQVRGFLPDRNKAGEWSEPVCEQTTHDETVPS
Procedure: (A) SPR sensorgrams displaying dose-dependent binding of IL-10Rβ VHHs to immobilized human IL-10Rβ ECD. SPR experiments were performed using the same conditions as for IL-2 specific VHHs. Binding constants were determined from kinetic fitting and summarized in (B).

[1] = biological target: IL-2Rβ/γc receptor heterodimer on cells (human) (UniProt P14784); assay: cell-based or functional assay
IL-2Rβ/γc receptor heterodimer on cells (human), sequence (P31785 23-369, one chain of several): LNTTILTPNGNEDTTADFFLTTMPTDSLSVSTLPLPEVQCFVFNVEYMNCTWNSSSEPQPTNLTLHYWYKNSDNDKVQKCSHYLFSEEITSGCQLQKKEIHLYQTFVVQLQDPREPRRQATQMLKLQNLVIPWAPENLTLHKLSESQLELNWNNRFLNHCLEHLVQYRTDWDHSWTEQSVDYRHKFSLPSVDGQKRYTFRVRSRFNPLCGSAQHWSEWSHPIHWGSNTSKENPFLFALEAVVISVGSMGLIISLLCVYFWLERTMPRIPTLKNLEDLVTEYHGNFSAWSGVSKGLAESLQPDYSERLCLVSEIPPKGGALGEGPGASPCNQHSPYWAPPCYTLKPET

B4: 10Rβ-VHH2 (VHH)
VHH: QVQLQESGGGSVQTGGSLRLSCAASQVNMNSVGWFRQAPGKAREGVATISPSGGATYYTDSVKGRFTISRDNAKNTVYLQMNSLNAEDTAMYYCAADGGRDWWLLRPQTFSYWGQGTQVTVSS
notes: member of the group m13; also called VHH2 (IL-10Rβ VHH)
- Kd (human IL-10Rβ ECD): 2200 pM

B5: IFNAR2-VHH2 (VHH)
VHH: QVQLQESGGGLVQPGGSLRLSCAASGFTFSDYIMTWVRQAPGKGLEWVSSINNGGRSTYYADSVKGRFTISRDNAKNTLYLQLNSLKIEDTAMYYCARDVTCWGARTGCRVSGGTQVTVSS
notes: Member of the group m12 (IFNAR2 VHHs); also called VHH2 (IFNAR2 VHH)
- Kd (human IFNAR2 ECD): 780 pM

B6: IFNAR2-VHH1 (VHH)
VHH: QVQLQESGGGSVQPGGSLRLSCAASGFTFSNYIMSWVRQAPGKGLEWVSAISGGGNTYYTDSVKGRFTISRDNAKNTLYLQLNSLKTEDTAMYYCAQNWWVAGRSPNPPGQGTQVTVSS
notes: Member of the group m12 (IFNAR2 VHHs); also called VHH1 (IFNAR2 VHH)
- Kd (human IFNAR2 ECD): 310 pM

B8: 10Rβ-VHH3 (VHH)
VHH: QVQLQESGGGSVQVGGSLRLSCAASGYTYSNYCMGWFRQAPGKEREGVATIDGDGSTRYADSVKGRFTISKDNAKNTLYLQMHSLKPEDTAMYYCAADFALCDPTVVAHTDFGYWGQGTQVTVSS
notes: member of the group m13; also called VHH3 (IL-10Rβ VHH)
- Kd (human IL-10Rβ ECD): 2500 pM

B11: 10Rβ-VHH1 (VHH)
VHH: QVQLQESGGGSVQAGGSLRLSCAARYTYSTYCMGWFRQAPGKEREGVAAIDSDGSTSYADSVKGRFTISKDNAKNTLYLQMNSLKPEDTAMYYCASDADCDLGGSWSTRGQGTQVTVSS
notes: member of the group m13; also called VHH1 (IL-10Rβ VHH)
- Kd (human IL-10Rβ ECD): 1600 pM

Second part, the binder after the results:

- Kd (human IFNAR2 ECD): 330 pM
B1: IFNAR2-VHH10 (VHH)
VHH: QVQLQESGGGLVQPGGSLRLSCAASGFTFSNHIMSWVRQAPGKGLEWVSAINSGGGSTYYRDSVKGRFTISRDNAKNTLYLQLNSLKTEDTAMYYCAKDWWRYGSDKPPGQGTQVTVSS
notes: Member of the group m12 (IFNAR2 VHHs); also called VHH10 (IFNAR2 VHH)

- Kd (human IFNAR2 ECD): 210 pM
B2: IFNAR2-VHH3 (VHH)
VHH: QVQLQESGGGLVQPGGSLRLSCAASEFTFSEYSMKWVRQPPGKGLEWVSTISPSGGTTRYAESVKGRFTISRDNAKNTLYLQLNSLKTEDTAMYYCSVADWSVTQRRGQGTQVTVSS
notes: Member of the group m12 (IFNAR2 VHHs); also called VHH3 (IFNAR2 VHH)

- Kd (human IFNAR2 ECD): 540 pM
B3: IFNAR2-VHH8 (VHH)
VHH: QVQLQESGGGSVQAGGSLRLSCAASGFYGTYSMGWFRQAPGKEREGVAHIESDGSTRYADSMKGRFTVSKDNAKKILYLQMNSLKPEDTAVYYCAADPRPYFRTWYERARYGGQGTQVTVSS
notes: Member of the group m12 (IFNAR2 VHHs); also called VHH8 (IFNAR2 VHH)

- pSTAT1/3 activity in NK cells, relative to hIL-2 [1]: 3%
- pSTAT1 or pSTAT3 activity in CD8+ T cells, relative to hIL-2 [1]: 25%
- pSTAT5 activity in CD8+ T cells, relative to hIL-2 [1]: 90%
- pSTAT5 activity in NK cells, relative to hIL-2 [1]: 45%
B7: MY193-R (bispecific antibody, not shown: small tags and cut ends)
chain: QVQLQESGPGLVKPSETLSLTCTVSGGSISSSSYYWGWIRQPPGKGLEWIGSIYYSGSTYYNPSLKSRVTISVDTSKNQFSLKLSSVTAADTAVYYCAGDILTGYALDYWGQGTLVTVSSGGGGSGGGGSGGGGSSYELTQPPSMSVSPGQTARITCSGDALPKQFAFWYQQKPGQAPVLVIYKDTERPSGIPERFSGSSSGTTVTLTITGVQAEDEADYYCQSPDSSGTVEVFGGGTKLTVLGGGGTSASQVQLQESGGGSVQAGGSLRLSCTASGFTFDDEDMGWYRQAPGNECELVSSIGSLGRRYYADSVKDRFAISQDNAKNTVYLQMNSLKPEDTAVYYCAATKGGSWLDSILASCQGAFGYWGQGTQVTVSS

- Kd (human IFNAR2 ECD): 230 pM
B9: IFNAR2-VHH5 (VHH)
VHH: QVQLQESGGGLVQPGGSLTLSCAASGFTFRNHIMSWVRQAPGKGLEWVSAISSGGGNTYYADSVKGRFTISRDNAKSTLYLQLNSLKTEDTAMYYCTKDWARPPYSDFLAPQAQGTQVTVSS
notes: Member of the group m12 (IFNAR2 VHHs); also called VHH5 (IFNAR2 VHH)

- pS6 activity in CD8+ T and NK cells, relative to IL-2 [1]: 50%
- pSTAT5 activity in CD8+ T and NK cells, relative to IL-2 [1]: 70 to 100%
B10: MY173-F (bispecific antibody, not shown: small tags and cut ends)
chain: QVQLQESGGGSVQAGGSLRLSCAASSYTISSVCMGWFRQAPGKEREGVAGIAPDGSTGYGDSVKGRFTISKDNAKNTLYLQMNSLKPEDTAMYYCAAASPGRCFLPRTALEPALYYNWGQGTQVTVSSSFQVQLQESGGGSVQAGGSLRLSCAASGYTYRDYYMGWFRQAPGREREGVASIYTRGSREGSTRYSSSVEGRFTITLDTAKNTLYLQMNSLKPEDTAMYYCAADDRTWLPRVQLGGPRENEYNYWGQGTQVTVSS
